Paper PMC9825169, “The Caulobacter crescentus DciA promotes chromosome replication through topological loading of the DnaB replicative helicase at replication forks” (Nucleic Acids Research, 2022)

B1: DnaB with a C-terminal hexahistidine tag (DnaB-His; 56 kDa) (enzyme, Caulobacter crescentus, UniProt A0A0H3C7A8 1-507, looked up)
chain: MPMSLVPALDLVLPGLPEPTINVAPHNMEAEQALLGVLLYDNAAYERLSDNLQARCFYEPFHQRLFQAIETHVRKGQLAEPILLADEFKKDPAFEELGGLRYLADLVDRAPPAANVGDYARVIFDLSLRRELIRIGGDIATAAQGGNDEKRNARDQIEAAEQSLYSLAESGAASSGFVSFGDALRGAVEMTAEAYSRDGGMSGVSTDLMDLDQKIGGLHPSDLIILAGRPSMGKTALATNIAFNIAKKYAYEIQPDGTKKTVQGGVVAFYSLEMSAEQLALRMLADASGVSGDRLRKGEIDASEFGRVRDAAMELQNAPLYIDATGGISIAKLTARARRLKRQVGLDLIVVDYLQLVTGSDLGANANRVQEVSQITMGLKALAKELSVPVIALSQLSRQVEQRDDKRPQLSDLRESGSIEQDADMVWFVYREAYYVGRAEPREGTPEHLTWQEEMDRLQGLAEVIIAKQRHGPIGTVRLSFNSDTTRFGNLARDHYFAQARNIPSDE
notes: Replicative DNA helicase DnaB (CCNA_01737) of Caulobacter crescentus; Hexamer by size exclusion chromatography; Construction details are in the Supplemental Materials; also called C. crescentus DnaB; CCNA_01737; source: E. coli, purified (procedure in the Supplemental Material); not shown: His6, C-terminal, kept
B2: DciA with an N-terminal hexahistidine tag (His-DciA; 21 kDa) (natural protein, Caulobacter crescentus, UniProt A0A0H3C5R2 1-179, looked up)
chain: MRRPLPTPEEAIAILRSKRTKPQRRPPPPAGKNLAPLLKDLEDRFGKGPAALQARWKEIVGDTLARRTEPVRIIKGRNGEGGALELRVDGPVASLIQHQAPQITARLDMLLGKGVVTRLRIVQGPVKAPAAAPSTRLRRKPPLDAALEKQLADSLAEQPDGALKQALLKLGRGVLSSER
notes: DciA (CCNA_00380) of Caulobacter crescentus; This is surmised from the primer; construction details are in the Supplemental Materials; source: E. coli, purified (procedure in the Supplemental Material); not shown: His6, N-terminal, kept

Key:
DnaB-His = target: T1, DnaB-His (Caulobacter vibrioides, UniProt A0A0H3C7A8); experiment: ATPase assay, [alpha-32P]ATP, TLC on PEI cellulose, Michaelis-Menten fit; assay type: biochemical; details: pH 7.5, 10 mM magnesium acetate, 30 C, 5-160 uM ATP, 8.3 nM hexamer, no DciA; labelled compound
T1 construct: gene CCNA_01737; full-length, C-terminal His6 tag kept, expressed in E. coli Rosetta 2(DE3), 56 kDa monomer, hexamer (330 kDa) from size exclusion chromatography

[1] = target: the molecule itself; experiment: SEC; Superdex 200 Increase 10/300 GL; 25 mM Tris-HCl pH 7.5, 300 mM sodium chloride, 20% glycerol, 0.1 mM ATP, 5 mM magnesium chloride; 0.2 ml/min; DnaB-His 10 nmol, His-DciA 25 nmol, alone or mixed; fractions on SDS-PAGE with Coomassie staining
[2] = target: B1; experiment: as above; details: both partners purified

## Nc1ncnc2c1ncn2[C@@H]1O[C@H](COP(=O)(O)OP(=O)(O)OP(=O)(O)O)[C@@H](O)[C@H]1O [ATP]
DnaB-His
  ATPase assay, [alpha-32P]ATP, TLC on PEI cellulose, Michaelis-Menten fit: ATP hydrolysis was readily observed at various concentrations of wild-type DnaB-His

## B1
[1]
  stoichiometry N: 6

## B2
[2]
  stoichiometry N: 1.9 DnaB-His per His-DciA
